Data as given in PMC9434101 (The EMBO Journal, 2022).
Ends that are not written are not given here.

Columns and labels:
[1] = target: T1, 6xHis-tagged AIFM1(103–613) (UniProt O95831 103-613); assay: ITC
[2] = target: T1, 6xHis-tagged AIFM1(103–613); assay: ITC; remark: listed apart in the source

T1 sequence (O95831 103-613): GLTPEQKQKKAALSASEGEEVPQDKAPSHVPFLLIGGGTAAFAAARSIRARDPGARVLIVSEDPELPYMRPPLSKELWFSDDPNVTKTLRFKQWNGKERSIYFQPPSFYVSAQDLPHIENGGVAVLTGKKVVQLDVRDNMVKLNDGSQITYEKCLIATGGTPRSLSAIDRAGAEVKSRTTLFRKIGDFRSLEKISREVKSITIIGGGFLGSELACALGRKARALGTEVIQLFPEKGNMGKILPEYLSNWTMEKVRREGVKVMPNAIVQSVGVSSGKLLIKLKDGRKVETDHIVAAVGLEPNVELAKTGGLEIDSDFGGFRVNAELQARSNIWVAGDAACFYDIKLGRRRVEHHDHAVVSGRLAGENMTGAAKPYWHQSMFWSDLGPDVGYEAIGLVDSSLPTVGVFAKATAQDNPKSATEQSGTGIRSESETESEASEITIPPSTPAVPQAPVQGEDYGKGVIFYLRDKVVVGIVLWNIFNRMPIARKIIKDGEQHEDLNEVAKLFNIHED

B1: recombinant full-length MIA40/CHCHD4^C4S,C53S,C55S (natural protein)
chain: MSYSRQEGKDRIIFVTKEDHETPSSAELVADDPNDPYEEHGLILPNGNINWNSPSLGGMASGPCGEQFKSAFSCFHYSTEEIKGSDCVDQFRAMQECMQKYPDLYPQEDEDEEEEREKKPAEQAEETAPIEATATKEEEGSS
- stoichiometry N [1]: 2 AIFM1 per MIA40/CHCHD4

Binder: GSEGKDRIIFVTKEDHETPSSAEL-NH2 [CHCHD4/MIA40 peptide (unlabeled), GSEGKDRIIFVTKEDHETPSSAEL-NH2]
- Kd [2]: 2940 nM
